B1: LINE1-full (parent)
chain: UACGUAGGUGGUUUUCCCCUGAUAGUGCUAAGGGGGCCUGGAAGUUUGGACUGGGCAGAGCUCAACACAGCGUGGCAAAGUGGCUGUGGCUAGACUGCCUCUCUGGAUUCCUCGUCACUCAGCAGGGCAUCUCUGAGAGAAAUGCC

Variants of: B1
Experiment: self-cleavage, relative activity (ratio to wild type); higher = more cleavage; in vitro, sequencing; the parent is a self-cleaving ribozyme

Which self-cleavage does the source give for UACGUAGGUGGUUUUCCCCUGAUAGUGCUAAGGGGGCCUGGAAGUUUGGACUGGGCAGAGCUCAACACGGCGUGGCAAAGUGGCUGUGGCUAGACUGCCUCUAUGGAUUCCUCGUCACUCAGCAGGGCAUCUCUGAGAGAAAUGCC here?
Its self-cleavage is 0.43.

With UACGUAGGUGGUUUUCCCCUGAUAGUGCUAAGGGGGCCUGGAAGUUUGGACUGGGCAGAGCUCAACACAGCGUGGCAAAGUGGCUGUGGCUAGACUGCCUCUCUGGUUUCCUCGUCACUCAGCAGGGCAUCUCGGAGAGAAAUGCC as the variant, how does the self-cleavage read?
Its self-cleavage is 1.9.

With UACGUAGGUGGUCUUCCCCUGAUAGUGCUAAGGGAGCCUGGAAGUUUGGACUGGGCAGAGCUCAACACAGCGUGGCAAAGUGGCUGUGGCUAGACUGCCUCUCUGGAUUCCUCGUCACUCAGCAGGGCAUCUCUGAGAGAAAUGCC as the variant, how does the self-cleavage read?
Its self-cleavage is 1.13.

Which self-cleavage does the source give for UACGUAGGUGGUUUUCCCCUGAUCGUGCUAAGGGGGCCUGGAAGUUUGGACUGGGCAGAGCUCAACACAGCGCGGCAAAGUGGCUGUGGCUAGACUGCCUCUCUGGAUUCCUCGUCACUCAGCAGGGCAUCUCUGAGAGAAAUGCC here?
The self-cleavage was 1.84.

Which self-cleavage does the source give for UACGUAGGUGGUUUUCCCCUGAUAGUGCUAAGGGGGCCUGGAAGUUUGGACUGGGCAGAGCUCAACACAGCGUGGCAAAGUGGAUGUGGCUAGACUGCCUCUCUGGAUUCCUCGUCACUCAGCAGGGCAUCUCUGAGAGAAAUGCC here?
The self-cleavage was 0.1.

Which self-cleavage does the source give for UACGUAGGUGGUUUUCCCCUGAUAGUGCUAAGGGGGCCUGGAUGUUUGGACUGGGCAGAGCUCAACACAGCGUGGCAAAGUGGCUGUGGCUAGACUGCCUCUCUGGAUUCCUCGUCACUCAGCAGGGCAUCUCUGAGAGACAUGCC here?
Its self-cleavage is 2.43.

Which self-cleavage does the source give for UACGUAGGUGGUUUUCCCCUGAUAGUGCUAAGGGGGCCUGGAAGUUUGGACUGGACAGAGCUCAACACAGCGUGGCAAAGUGGCUGUGGCUAGACUGCCUCUCUGGAUUCUUCGUCACUCAGCAGGGCAUCUCUGAGAGAAAUGCC here?
Its self-cleavage is 0.3.

For UACGUAGGUGGUUUUCCCCUGAUAGUGCUAAGGGGUCCUGGAAGUUUGGACUGGGCAGAGCUCAACACAGCGUGGCGAAGUGGCUGUGGCUAGACUGCCUCUCUGGAUUCCUCGUCACUCAGCAGGGCAUCUCUGAGAGAAAUGCC, which self-cleavage is on record?
Its self-cleavage is 2.39.

With UACGUAGGUGGUUUCCCCCUGAUAGUGCUAAGGGGGCCUGGAAGUUUGGACUGGGCAGAGCUCAACACAGCGUGGCAAAGUGGCUGUGGCUAGACUGCCUCUCUGGAUUCCUCGUCACUCAGCAGGGCAUCUCUGAGAGAAAUGCU as the variant, how does the self-cleavage read?
Its self-cleavage is 1.57.

With UACGUAGGUGGUUUUCCCCUGAUAGUGCUAAGGGGGCCUGGAUGUUUGGACUGGGCAGAGCUCAACACAGCGUGGCAAAGUGGCUGUGGCUAGUCUGCCUCUCUGGAUUCCUCGUCACUCAGCAGGGCAUCUCUGAGAGAAAUGCC as the variant, how does the self-cleavage read?
The self-cleavage was 0.24.

With UAAGUAGGUGGUUUUCCCCUGAUAGUGCUAAGGGGGCCUGGAAGUUUGGACUGGGCAGAGCUCAACACAGCGUGGCAAAGUGGCUGUGGCUAGACUGCCUCUCUGGAUUCCUCGUCACUCAGCAGGACAUCUCUGAGAGAAAUGCC as the variant, how does the self-cleavage read?
Its self-cleavage is 0.43.

Which self-cleavage does the source give for UACGUAGGUGGUUUUCCCCUGAUAGUGCUAAGGGGGCCUGGAAGUUUGGACUGGGCAGAGCUCAACACAGCGUGGCAAAUUGGCUGAGGCUAGACUGCCUCUCUGGAUUCCUCGUCACUCAGCAGGGCAUCUCUGAGAGAAAUGCC here?
Its self-cleavage is 0.08.

Which self-cleavage does the source give for UACGUAGGUGGUCUUCCCCUGAUAGUGCUAAGGGGGCCUGGAAGUUUGGACUGGGCAGAGCUCAACACAGCGUGGCAAAGUGGCUGUGGCUAGACUGCCUCUCUGGAUUCCUCGUCACUCAGCAGGGCAUCUCUGGGAGAAAUGCC here?
Its self-cleavage is 1.25.

With UACGUAGGUGGUUUUCCCCUGAUAGUGCUAAGGGGGCCUGGAAGUUUGGACCGGGCAGAGCUCAACACAGCGUGGCAAAGUGGCUGUGGCUAGACUGCCUCUCUGGAUCCCUCGUCACUCAGCAGGGCAUCUCUGAGAGAAAUGCC as the variant, how does the self-cleavage read?
The self-cleavage was 0.69.

With UACGUAGGUGGUUUUCCCCUGAUAGUGCUAAGGGGGCCUGGAAGUAUGGACUGGGCAGAGCUCAACACAGCGCGGCAAAGUGGCUGUGGCUAGACUGCCUCUCUGGAUUCCUCGUCACUCAGCAGGGCAUCUCUGAGAGAAAUGCC as the variant, how does the self-cleavage read?
Its self-cleavage is 1.5.

Which self-cleavage does the source give for UACGUAGGUGGUUUUCCCCUGAUAGUGCUAAGGGGGCCUGGAAGUUUGGACUGGGCGGAGCUCAACACAGCGUGGCAAAGUGGCGGUGGCUAGACUGCCUCUCUGGAUUCCUCGUCACUCAGCAGGGCAUCUCUGAGAGAAAUGCC here?
Its self-cleavage is 0.23.

Which self-cleavage does the source give for UACGUAGGUGGUUUUCCCCUGAUAGUGCUAAGGGGGCCUGGAAGUUUGGACUGGGCAGGGCUCAACACAGCGUGGCAAAGUGGCUGUGGCUAGACUGCCUCUCUGGAUUCCUCGUCGCUCAGCAGGGCAUCUCUGAGAGAAAUGCC here?
The self-cleavage was 0.18.

With UACGUAGGUGGUUUUCCCCUGAUAGUGCUAAGGGGGCCUGGAAGUUUGGACUGGGCAGAGCUCAUCACAGCGUGGCAAAGUGGCUGUGGCUAGACUGCCUCUCUGGAUUCCUCGUCACUCAGCAAGGCAUCUCUGAGAGAAAUGCC as the variant, how does the self-cleavage read?
The self-cleavage was 0.21.

For UACGUAGGUGGUUUUCCCCCGAUAGUGCUAAGGGGGCCUAGAAGUUUGGACUGGGCAGAGCUCAACACAGCGUGGCAAAGUGGCUGUGGCUAGACUGCCUCUCUGGAUUCCUCGUCACUCAGCAGGGCAUCUCUGAGAGAAAUGCC, which self-cleavage is on record?
Its self-cleavage is 1.1.

With UACGUAGGUGGUUUUCCCCUGAUAGUGCUUAGGGGGCCUGGAAGUUUGGACUGGGCAGAGCUCAACACAGCGUGGCAAAGUGGCUGUGGCUAGACUGCCUCUCUGGAUUCCUCGUCACUCAGCCGGGCAUCUCUGAGAGAAAUGCC as the variant, how does the self-cleavage read?
Its self-cleavage is 1.05.
